Results on 125 sequences are retold here after the supplement of paper PMC9112550, “Optimization of the antimicrobial peptide Bac7 by deep mutational scanning” (BMC Biology, 2022).
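Further: peptides expressed intracellularly from a pBAD plasmid library in pooled LB shake-flask culture, induced with 0.3% L-arabinose, DNA abundance read by NGS, three biological replicates, DESeq2 with apeglm shrinkage.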

In the series the test system is Escherichia coli TOP10. Description: shrunken log2 fold change of peptide-encoding DNA abundance (4.5 h post-induction vs induction); higher = less antimicrobial activity (less host growth inhibition). The settings on record: time post-induction: 4.5 h; library: site-saturation at positions 5, 18, 19, 20.
For RRIRARPPRLPRPRPRPADVPRP, the “shrunken log2 fold change” value turned out to be 0.118.
RRIRARPPRLPRPRPRPSDMPRP: the “shrunken log2 fold change” value came out at 0.16.
The result for RRIRKRPPRLPRPRPRPHWLPRP reads 0.148; that for RRIRRRPPRLPRPRPRPEGYPRP, 0.202.
For RRIRQRPPRLPRPRPRPQKRPRP the value was -0.354.
For RRIRSRPPRLPRPRPRPHFYPRP the value was 0.166; for RRIRLRPPRLPRPRPRPYAKPRP, 0.0695.
Consider RRIRARPPRLPRPRPRPIIGPRP, for which the “shrunken log2 fold change” value was -0.065.
The result for RRIRIRPPRLPRPRPRPEWWPRP reads -0.0654; that for RRIRVRPPRLPRPRPRPRVMPRP, 0.188.
The result for RRIRHRPPRLPRPRPRPESDPRP reads -0.227; that for RRIRWRPPRLPRPRPRPSFQPRP, -0.284.
Consider RRIRHRPPRLPRPRPRPLRDPRP, for which the “shrunken log2 fold change” value came to 0.271.
Regarding RRIRGRPPRLPRPRPRPTPMPRP, the “shrunken log2 fold change” value was found to be 0.887.
The result for RRIRIRPPRLPRPRPRPDKRPRP reads -0.0405; that for RRIRGRPPRLPRPRPRPDNHPRP, 0.125; that for RRIRRRPPRLPRPRPRPLDMPRP, -0.114.
For RRIRHRPPRLPRPRPRPINKPRP the value was -0.652.
For RRIRQRPPRLPRPRPRPAWYPRP the value was -0.0125; for RRIRGRPPRLPRPRPRPIDLPRP, 0.00416.
With RRIRSRPPRLPRPRPRPFGGPRP, the “shrunken log2 fold change” value is -0.0941.
Take RRIRYRPPRLPRPRPRPCCIPRP: the “shrunken log2 fold change” value was -0.129.
Consider RRIRQRPPRLPRPRPRPGIEPRP, for which the “shrunken log2 fold change” value is -0.113.
For RRIRFRPPRLPRPRPRPNCAPRP, the “shrunken log2 fold change” value amounted to 0.154.
Consider RRIRLRPPRLPRPRPRPTCGPRP, for which the “shrunken log2 fold change” value was 0.281.
For RRIRWRPPRLPRPRPRPYLEPRP the value was -0.112.
The result for RRIRHRPPRLPRPRPRPQDKPRP reads -0.355; that for RRIRWRPPRLPRPRPRPFNTPRP, -0.0751.
The result for RRIRSRPPRLPRPRPRPTPGPRP reads 0.451; that for RRIRQRPPRLPRPRPRPRSPPRP, 0.0984.
With RRIRLRPPRLPRPRPRPCMIPRP, the “shrunken log2 fold change” value was -0.21.
Regarding RRIRMRPPRLPRPRPRPMPQPRP, the “shrunken log2 fold change” value is 4.29.
On to RRIRIRPPRLPRPRPRPMLQPRP, for which the “shrunken log2 fold change” value was -0.452.
The result for RRIRMRPPRLPRPRPRPFEFPRP reads -0.044.
The result for RRIRRRPPRLPRPRPRPWPMPRP reads -0.157.
The result for RRIRVRPPRLPRPRPRPWWLPRP reads -0.0366; that for RRIRVRPPRLPRPRPRPLKWPRP, -0.235; that for RRIRWRPPRLPRPRPRPGTVPRP, -0.148.
As to RRIRDRPPRLPRPRPRPSYDPRP, the “shrunken log2 fold change” value is -0.175.
As for RRIRIRPPRLPRPRPRPWNFPRP, the “shrunken log2 fold change” value was -0.00674.
For RRIRFRPPRLPRPRPRPQYQPRP the value was -0.118.
The result for RRIRLRPPRLPRPRPRPNKGPRP reads -0.254.
Take RRIRTRPPRLPRPRPRPVMGPRP: the “shrunken log2 fold change” value was -0.0279.
With RRIRERPPRLPRPRPRPEHAPRP, the “shrunken log2 fold change” value is -0.0115.
For RRIRPRPPRLPRPRPRPEQKPRP the value was 0.000209; for RRIRKRPPRLPRPRPRPWFCPRP, -0.0352; for RRIRKRPPRLPRPRPRPADMPRP, 0.399.
RRIRDRPPRLPRPRPRPVQNPRP: the “shrunken log2 fold change” value came to 0.577.
Take RRIRVRPPRLPRPRPRPKLNPRP: the “shrunken log2 fold change” value is -0.212.
On to RRIRVRPPRLPRPRPRPTRLPRP, for which the “shrunken log2 fold change” value was determined as 0.568.
Consider RRIRARPPRLPRPRPRPRMHPRP, for which the “shrunken log2 fold change” value amounted to 0.324.
For RRIRARPPRLPRPRPRPICDPRP the value was 0.497; for RRIRWRPPRLPRPRPRPTRSPRP, 0.723; for RRIRFRPPRLPRPRPRPFHCPRP, -0.102.
For RRIRSRPPRLPRPRPRPHMNPRP the value was -0.548.
The result for RRIRNRPPRLPRPRPRPKSYPRP reads -0.0423.
In the case of RRIRSRPPRLPRPRPRPLNRPRP, the “shrunken log2 fold change” value was -0.246.
For RRIRIRPPRLPRPRPRPNGWPRP the value was 0.101.
In the case of RRIRTRPPRLPRPRPRPLSVPRP, the “shrunken log2 fold change” value was -0.0398.
For RRIRERPPRLPRPRPRPKILPRP the value was -0.0994.
The result for RRIRPRPPRLPRPRPRPEFFPRP reads -0.00122; that for RRIRARPPRLPRPRPRPALWPRP, 0.833.
For the sequence RRIRFRPPRLPRPRPRPQVNPRP, the “shrunken log2 fold change” value was -0.0623.
The result for RRIRHRPPRLPRPRPRPPGHPRP reads 0.184; that for RRIRTRPPRLPRPRPRPICKPRP, -0.0914.
For RRIRKRPPRLPRPRPRPEKYPRP the value was -0.0153; for RRIRWRPPRLPRPRPRPWVMPRP, -0.129.
For RRIRKRPPRLPRPRPRPVISPRP the value was -0.00841; for RRIRKRPPRLPRPRPRPCYLPRP, -0.427; for RRIRHRPPRLPRPRPRPRNWPRP, 0.0465.
Take RRIRPRPPRLPRPRPRPLNDPRP: the “shrunken log2 fold change” value was -0.298.
For RRIRSRPPRLPRPRPRPNSTPRP the value was -0.573; for RRIRSRPPRLPRPRPRPRNNPRP, -0.212; for RRIRGRPPRLPRPRPRPYVAPRP, 0.0436.
Take RRIRGRPPRLPRPRPRPELSPRP: the “shrunken log2 fold change” value is 0.169.
Take RRIRDRPPRLPRPRPRPYFDPRP: the “shrunken log2 fold change” value is -0.0823.
RRIRARPPRLPRPRPRPPMRPRP: the “shrunken log2 fold change” value is 1.26.
Regarding RRIRSRPPRLPRPRPRPIKAPRP, the “shrunken log2 fold change” value was found to be 0.0326.
On to RRIRVRPPRLPRPRPRPLRHPRP, for which the “shrunken log2 fold change” value is 0.288.
For RRIRPRPPRLPRPRPRPHKRPRP the value was 0.0853; for RRIRTRPPRLPRPRPRPQYSPRP, -0.056; for RRIRSRPPRLPRPRPRPWTNPRP, -0.0183.
Consider RRIRNRPPRLPRPRPRPMIAPRP, for which the “shrunken log2 fold change” value is -0.42.
Regarding RRIRRRPPRLPRPRPRPVCPPRP, the “shrunken log2 fold change” value came to 0.32.
Take RRIRMRPPRLPRPRPRPHCDPRP: the “shrunken log2 fold change” value is -0.0833.
As for RRIRDRPPRLPRPRPRPHPGPRP, the “shrunken log2 fold change” value worked out at 0.163.
RRIRNRPPRLPRPRPRPYFQPRP: the “shrunken log2 fold change” value was -0.317.
The result for RRIRLRPPRLPRPRPRPQPQPRP reads 0.396; that for RRIRARPPRLPRPRPRPWGIPRP, -0.0125.
The result for RRIRLRPPRLPRPRPRPLNEPRP reads -0.0224; that for RRIRWRPPRLPRPRPRPQMNPRP, -0.243; that for RRIRWRPPRLPRPRPRPIFLPRP, -0.509.
On to RRIRHRPPRLPRPRPRPDDMPRP, for which the “shrunken log2 fold change” value was -0.11.
Regarding RRIRRRPPRLPRPRPRPPWTPRP, the “shrunken log2 fold change” value came to 0.443.
For RRIRERPPRLPRPRPRPFCRPRP the value was -0.0911.
For RRIRFRPPRLPRPRPRPNQFPRP the value was -0.0599.
For RRIRPRPPRLPRPRPRPLTKPRP, the “shrunken log2 fold change” value stood at 0.0122.
On to RRIRNRPPRLPRPRPRPAVFPRP, for which the “shrunken log2 fold change” value stood at 0.0636.
The result for RRIRPRPPRLPRPRPRPDSDPRP reads 0.0303; that for RRIRQRPPRLPRPRPRPSLEPRP, 0.0433; that for RRIRYRPPRLPRPRPRPDSPPRP, -0.391.
The result for RRIRHRPPRLPRPRPRPGCGPRP reads 0.417.
On to RRIRHRPPRLPRPRPRPYPFPRP, for which the “shrunken log2 fold change” value is -0.772.
Regarding RRIRFRPPRLPRPRPRPRLIPRP, the “shrunken log2 fold change” value is -0.261.
For RRIRNRPPRLPRPRPRPQLNPRP the value was -0.539; for RRIRSRPPRLPRPRPRPNTCPRP, -0.808; for RRIRQRPPRLPRPRPRPYWQPRP, -0.411.
The result for RRIRTRPPRLPRPRPRPYYCPRP reads -0.249.
As for RRIRSRPPRLPRPRPRPDHSPRP, the “shrunken log2 fold change” value was -0.096.
For RRIRYRPPRLPRPRPRPMWGPRP the value was 0.171.
As for RRIRARPPRLPRPRPRPPGQPRP, the “shrunken log2 fold change” value was 0.0736.
For RRIRGRPPRLPRPRPRPYFYPRP the value was -0.03; for RRIRPRPPRLPRPRPRPCWKPRP, -0.0855.
As to RRIRIRPPRLPRPRPRPQAFPRP, the “shrunken log2 fold change” value was -0.0625.
Consider RRIRHRPPRLPRPRPRPICGPRP, for which the “shrunken log2 fold change” value was 0.00743.
The result for RRIRPRPPRLPRPRPRPNCEPRP reads 0.117; that for RRIRSRPPRLPRPRPRPINGPRP, -0.00748.
For RRIRKRPPRLPRPRPRPDQQPRP the value was 0.0777; for RRIRYRPPRLPRPRPRPRCRPRP, -0.26; for RRIRVRPPRLPRPRPRPPIKPRP, -0.151.
Consider RRIRKRPPRLPRPRPRPPPSPRP, for which the “shrunken log2 fold change” value is 0.911.
Regarding RRIRERPPRLPRPRPRPVVHPRP, the “shrunken log2 fold change” value was -0.0247.
For RRIRNRPPRLPRPRPRPDDYPRP the value was 0.00129; for RRIRSRPPRLPRPRPRPCKHPRP, -0.216; for RRIRARPPRLPRPRPRPATMPRP, 0.413.
